Data reported in PMC7831362 (mAbs, 2021).
One block for each binder: values may come before it.

Key:
[1] = target: recombinant mouse PD-L1–human Fc chimeric fusion protein (mouse, UniProt Q9EP73 19-239, conjugated with europium cryptate trisbipyridine–N-hydroxysuccinimide); experiment: AlphaScreen or HTRF
[2] = target: natively expressed mouse PD-L1 on mouse tumor cells (Mus musculus (endogenous in Renca cells), UniProt Q9EP73); experiment: flow cytometry on cells
Sequence of natively expressed mouse PD-L1 on mouse tumor cells (Q9EP73 19-290): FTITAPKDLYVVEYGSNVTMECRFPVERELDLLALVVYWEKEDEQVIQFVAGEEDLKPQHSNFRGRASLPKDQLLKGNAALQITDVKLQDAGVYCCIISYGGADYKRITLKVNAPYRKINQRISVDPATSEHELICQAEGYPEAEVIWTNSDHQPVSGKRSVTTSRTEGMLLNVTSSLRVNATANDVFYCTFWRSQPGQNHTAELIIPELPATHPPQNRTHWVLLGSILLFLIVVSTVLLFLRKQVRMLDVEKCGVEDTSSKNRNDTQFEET

Sequence of recombinant mouse PD-L1–human Fc chimeric fusion protein (Q9EP73 19-239, change not shown): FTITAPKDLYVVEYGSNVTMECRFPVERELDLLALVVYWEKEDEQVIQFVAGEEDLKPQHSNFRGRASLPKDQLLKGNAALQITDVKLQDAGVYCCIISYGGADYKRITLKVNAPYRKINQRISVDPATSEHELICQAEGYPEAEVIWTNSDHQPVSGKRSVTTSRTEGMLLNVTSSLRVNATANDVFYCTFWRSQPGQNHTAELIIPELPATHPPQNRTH

binding result [1]: binds
B1: recombinant mouse B7-1/CD80 Fc chimera His-tag protein (Fc fusion, UniProt Q00609 38-246, looked up)
chain: VDEQLSKSVKDKVLLPCRYNSPHEDESEDRIYWQKHDKVVLSVIAGKLKVWPEYKNRTLYDNTTYSLIILGLVLSDRGTYSCVVQKKERGTYEVKHLALVKLSIKADFSTPNITESGNPSADTKRITCFASGGFPKPRFSWLENGRELPGINTTISQDPESELYTISSQLDFNTTRNHTIKCLIKYGDAHVSEDFTWEKPPEDPPDSKN
modifications: conjugated with DyLight-650

binding result [2]: binds
B2: anti-mouse PD-L1 hybridoma clone 17 (antibody, V domains shown)
VH: EVQLVESGGGLVQPGASLKLSCVASGFTFSDYWMSWVRQNPGKTMEWIGDIKYDGSYTDYAPSLKNRFTISRDNAKSTLYLQMSNVRSEDTATYYCTRATGRRDGYYPTDYFDYWGQGVMVTVSS
VL: DIVLTQSPALAVSLGQRATISCWASQSVSISRYNLMHWYQQKPGQQPKLLIYRASNLAGIPPRFSGSGSGTDFTLTINPVQADDIATYYCQQSRESPNTFGAGTKLELK
